Source: patent US20200199241A1 (Chugai, published 2020)
Positions count from the first letter of the chain named.

B1: IgG1-F1153 (antibody)
heavy: QVQLQESGPGLVKPSETLSLTCAVSGHSISHDHAWSWVRQPPGEGLEWIGFISYSGITNYNPSLQGRVTISRDNSKNTLYLQMNSLRAEDTAVYYCARSLARTTAMDYWGEGTLVTVSSASTKGPSVFPLAPSSKSTSGGTAALGCLVKDYFPEPVTVSWNSGALTSGVHTFPAVLQSSGLYSLSSVVTVPSSSLGTQTYICNVNHKPSNTKVDKKVEPKSCDKTHTCPPCPAPELRGGPKVFLFPPKPKDVLYISRTPEVTCVVVDVSHEDPEVKFNWYVDGVEVHNAKTKPREEQYNSTYRVVSVLQVLHADWLNGKEYKCKVSNKALPAPIEKTISKAKGQPREPQVYTLPPSRDELTKNQVSLTCLVKGFYPSDIAVEWESNGQPENNYKTTPPVLDSDGSFFLYSKLTVDKSRWQQGNVFNCSVMHEALHYHVTQKSLSLSP
light: not shown
notes: EU numbering; copies: 2 + 2
B2: IgG1-F1154 (antibody)
heavy: B1 heavy with V310P
light: not shown
notes: EU numbering; copies: 2 + 2
B3: IgG1-F1157 (antibody)
heavy: B1 heavy with R237L, K241S, V252T, Q309T, A313Q, N426S, V438Y, Q440R, S442E
light: not shown
notes: EU numbering; copies: 2 + 2
B4: IgG1-F1158 (antibody)
heavy: B1 heavy with V252T, Q309T, A313Q, N426S, V438Y, Q440R, S442E
light: not shown
notes: EU numbering; copies: 2 + 2
B5: IgG1-F1160 (antibody)
heavy: B1 heavy with R237L, K241S, V252T, Y254M, Q309T, V310F, A313Q, V438Y
light: not shown
notes: EU numbering; copies: 2 + 2
B6: IgG1-F1161 (antibody)
heavy: B1 heavy with R237L, K241S, V252T, Y254M, Q309T, A313Q, I334V, V438Y
light: not shown
notes: EU numbering; copies: 2 + 2
B7: IgG1-F1162 (antibody)
heavy: B1 heavy with R237L, P240D, K241S, V252Y, Q309T, A313Q, N426S
light: not shown
notes: EU numbering; copies: 2 + 2
B8: IgG1-F1163 (antibody)
heavy: B1 heavy with R237L, P240D, K241S, V252Y, N426S, V438Y
light: not shown
notes: EU numbering; copies: 2 + 2
B9: IgG1-F1164 (antibody)
heavy: B1 heavy with R237L, P240D, K241S, V252Y, N426S
light: not shown
notes: EU numbering; copies: 2 + 2
B10: IgG1-F1165 (antibody)
heavy: B1 heavy with R237L, P240D, K241S, V252Y, V310P, N426S
light: not shown
notes: EU numbering; copies: 2 + 2
B11: IgG1-F1178 (antibody)
heavy: QVQLQESGPGLVKPSETLSLTCAVSGHSISHDHAWSWVRQPPGEGLEWIGFISYSGITNYNPSLQGRVTISRDNSKNTLYLQMNSLRAEDTAVYYCARSLARTTAMDYWGEGTLVTVSSASTKGPSVFPLAPSSKSTSGGTAALGCLVKDYFPEPVTVSWNSGALTSGVHTFPAVLQSSGLYSLSSVVTVPSSSLGTQTYICNVNHKPSNTKVDKKVEPKSCDKTHTCPPCPAPELLGGPSVFLFPPKPKDTLMISRTPEITCVVVDVSHEDPEVKFNWYVDGVEVHNAKTKPREEQYNSTYRVVSVLTFLHQDWLNGKEYKCKVSNKALPAPIEKTISKAKGQPREPQVYTLPPSRDELTKNQVSLTCLVKGFYPSDIAVEWESNGQPENNYKTTPPVLDSDGSFFLYSKLTVDKSRWQQGNVFSCSVLHEALHNHYTQKSLSLSP
light: not shown
notes: EU numbering; copies: 2 + 2
B12: IgG1-F1183 (antibody)
heavy: B11 heavy with I261V, F310V, E382A, N436S
light: not shown
notes: EU numbering; copies: 2 + 2
B13: IgG1-F1184 (antibody)
heavy: B11 heavy with I261V, T309A, F310V, N436S
light: not shown
notes: EU numbering; copies: 2 + 2
B14: IgG1-F1185 (antibody)
heavy: B11 heavy with I261V, T309A, F310V, E382A, N436S
light: not shown
notes: EU numbering; copies: 2 + 2
B15: IgG1-F1188 (antibody)
heavy: B11 heavy with I261V, T309A, F310V, E382A, L430M, N436H
light: not shown
notes: EU numbering; copies: 2 + 2
B16: IgG1-F1190 (antibody)
heavy: B11 heavy with M254Y, I261V, F310V, L430M, H435E, N436Y, Y438V, Q440R, S442E
light: not shown
notes: EU numbering; copies: 2 + 2
B17: IgG1-F1191 (antibody)
heavy: B11 heavy with M254Y, I261V, F310V, L430M, N436Y, Y438V, T439A, Q440R, S442E
light: not shown
notes: EU numbering; copies: 2 + 2
B18: IgG1-F1194 (antibody)
heavy: B11 heavy with M254Y, I261V, F310V, L430M, N436Y, Y438V, Q440R, K441D, S442E
light: not shown
notes: EU numbering; copies: 2 + 2
B19: IgG1-F1195 (antibody)
heavy: B11 heavy with M254Y, I261V, F310V, L430M, N436Y, Y438V, Q440R, S442E, L443A
light: not shown
notes: EU numbering; copies: 2 + 2
B20: IgG1-F1196 (antibody)
heavy: B11 heavy with M254Y, I261V, F310V, L430M, N436Y, Y438V, Q440R, S442E, L443E
light: not shown
notes: EU numbering; copies: 2 + 2
B21: IgG1-F1197 (antibody)
heavy: B11 heavy with M254Y, S256T, I261V, F310V, L430M, N436Y, Y438V, Q440R, S442E
light: not shown
notes: EU numbering; copies: 2 + 2
B22: IgG1-F1198 (antibody)
heavy: B11 heavy with M254Y, T258E, I261V, F310V, L430M, N436Y, Y438V, Q440R, S442E
light: not shown
notes: EU numbering; copies: 2 + 2
B23: IgG1-F1199 (antibody)
heavy: B11 heavy with M254Y, S256T, T258E, I261V, F310V, L430M, N436Y, Y438V, Q440R, S442E
light: not shown
notes: EU numbering; copies: 2 + 2
B24: IgG1-F1200 (antibody)
heavy: B1 heavy with R237L, K241S, S256T, Q309T, A313Q, N426S, Q440R, S442E
light: not shown
notes: EU numbering; copies: 2 + 2
B25: IgG1-F1201 (antibody)
heavy: B1 heavy with R237L, K241S, T258E, Q309T, A313Q, N426S, Q440R, S442E
light: not shown
notes: EU numbering; copies: 2 + 2
B26: IgG1-F1202 (antibody)
heavy: B1 heavy with R237L, K241S, S256T, T258E, Q309T, A313Q, N426S, Q440R, S442E
light: not shown
notes: EU numbering; copies: 2 + 2
B27: IgG1-F1203 (antibody)
heavy: B11 heavy with M254Y, T258Q, I261V, F310V, L430M, N436Y, Y438V, Q440R, S442E
light: not shown
notes: EU numbering; copies: 2 + 2
B28: IgG1-F1204 (antibody)
heavy: B11 heavy with M254Y, S256T, T258Q, I261V, F310V, L430M, N436Y, Y438V, Q440R, S442E
light: not shown
notes: EU numbering; copies: 2 + 2
B29: IgG1-F1205 (antibody)
heavy: B1 heavy with R237L, K241S, T258Q, Q309T, A313Q, N426S, Q440R, S442E
light: not shown
notes: EU numbering; copies: 2 + 2
B30: IgG1-F1206 (antibody)
heavy: B1 heavy with R237L, K241S, S256T, T258Q, Q309T, A313Q, N426S, Q440R, S442E
light: not shown
notes: EU numbering; copies: 2 + 2

target: T1, soluble human FcRn complexed with β2-microglobulin (human, UniProt P61769 21-119, limits assumed); assay: Biacore SPR, pH 7.0;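 note: test antibodies captured on a Protein L chip with human FcRn flowed over as analyte, KD obtained as the ratio of dissociation to association rate constants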
T1 construct: also called hFcRn
T1 sequence (chain, as listed by the source limits assumed, chain 1 of 2): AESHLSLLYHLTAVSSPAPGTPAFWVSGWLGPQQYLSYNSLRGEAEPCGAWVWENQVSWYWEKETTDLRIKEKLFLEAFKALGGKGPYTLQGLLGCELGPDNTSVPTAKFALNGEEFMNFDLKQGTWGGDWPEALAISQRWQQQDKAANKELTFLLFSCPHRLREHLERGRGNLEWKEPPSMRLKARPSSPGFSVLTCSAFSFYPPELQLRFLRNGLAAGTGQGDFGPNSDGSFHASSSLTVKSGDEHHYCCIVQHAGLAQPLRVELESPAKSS
T1 sequence (P61769 21-119 limits assumed, chain 2 of 2): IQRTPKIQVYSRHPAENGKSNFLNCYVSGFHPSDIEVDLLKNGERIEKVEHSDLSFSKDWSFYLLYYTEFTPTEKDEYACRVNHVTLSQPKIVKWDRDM

Row | Binder | Kd [nM]
1 | B1 | 48.5
2 | B2 | 13.4
3 | B3 | 209
4 | B4 | 244
5 | B5 | 288
6 | B6 | 1070
7 | B7 | 343
8 | B8 | 154
9 | B9 | 69.6
10 | B10 | 16.3
11 | B11 | 872
12 | B12 | 1280
13 | B13 | 1000
14 | B14 | 917
15 | B15 | 1720
16 | B16 | 240
17 | B17 | 211
18 | B18 | 155
19 | B19 | 176
20 | B20 | 151
21 | B21 | 94.6
22 | B22 | 78.3
23 | B23 | 62.5
24 | B24 | 126
25 | B25 | 107
26 | B26 | 88.1
27 | B27 | 152
28 | B28 | 118
29 | B29 | 198
30 | B30 | 169
